Tests used:
[1] = target: spike RBD of the Delta variant (B.1.617.2) (SARS-CoV-2) (UniProt P0DTC2); experiment: cross-linking
[2] = target: spike RBD of the Alpha variant (B.1.1.7) (SARS-CoV-2) (UniProt P0DTC2); experiment: cross-linking

mNb6(108FFY) (VHH)
kobs (apparent first-order constant of cross-linking) [1]: 0.156 h⁻¹ | kobs (apparent first-order constant of cross-linking) [2]: 0.086 h⁻¹
